The results in this text go back to patent JP2020002075A (dated 2020).

The target of test [1] is T1, ヒトポドプラニン (ヒトポドプラニン提示CHO細胞, CHO-hPDPN) (human, UniProt Q86YL7 23-162).
T1 construct: whole, on cells
T1 sequence (looked up): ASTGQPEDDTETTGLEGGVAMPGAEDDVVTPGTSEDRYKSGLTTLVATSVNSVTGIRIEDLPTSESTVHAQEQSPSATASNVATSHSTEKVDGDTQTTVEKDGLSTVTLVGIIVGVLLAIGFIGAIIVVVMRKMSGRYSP
Description: flow cytometry on CHO-hPDPN, fit f(x)=a*x/(x+Kd).

Test [2] addresses T2, ラットポドプラニン (ラットポドプラニン提示CHO細胞, CHO-rPDPN) (rat, UniProt Q64294 23-166).
T2 construct: whole, on cells
T2 sequence (looked up): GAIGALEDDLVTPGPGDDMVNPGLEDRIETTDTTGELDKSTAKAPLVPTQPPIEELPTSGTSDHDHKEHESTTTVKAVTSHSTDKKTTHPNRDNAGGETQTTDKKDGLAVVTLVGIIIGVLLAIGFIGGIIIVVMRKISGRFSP
Description: flow cytometry on CHO-rPDPN, fit f(x)=a*x/(x+Kd). On the technique in general: Flow cytometry measures light scatter and fluorescence of single cells or particles in a stream.

Test [3] has as its target T3, ポドプラニン (ポドプラニン提示CHO細胞, 種の記載なし).
T3 construct: whole, on cells
Description: flow cytometry; cells and species not named at this place.

Residue numbers refer to the chain shown, from its start.

B1: clone 1 (第一世代交差性一本鎖可変領域断片) (scFv)
scFv: EVQLKESGGGLVQSGGSLRLSCAASGFSLTDYGVNWVRQAPGKGLEWVGVIWGGGNTYYNSALKSRFTISKDNSKNTLYLQMNSLRAEDTAVYYCAKHRGAWGQGTLVTVSAAGGGGSGGGGSGGGGSDIVMTQSPSTLAVSLGEKATINCKSSKSLLNSGNQKNYLIWYQQKPGQPPKLLIYGASTRESGVPDRFSGSVSGTDFTLTISSLQAEDLAVYYCQNDHTYPLTFGQGTKVEIKRTV
notes: From the Hu2LPMab-16 scFv library; also called クローン1; 第一世代交差性抗体; not shown: C-terminal FLAG tag and His tag
Usually Kd stands for the concentration at which binding is half-saturated. A high value points to weaker binding. For B1, the Kd in test [1] was 6.3 nM; in test [2], 108 nM; in test [3] it was 108 nM.

B2: clone 2 (scFv)
scFv: B1 scFv with S14P, T138N, K155Q, I168N, G184R, T231I
notes: From the Hu2LPMab-16 scFv library; also called クローン2; not shown: C-terminal FLAG tag and His tag
As for B2, the Kd worked out at 6.5 nM in test [1] and 500 nM in test [2].
